This passage reports stoichiometry N and Kd results from PMC6983858.

Test [1] concerns the target full-length human neurofibromin (His6-tev-NF1, 2–2818) (human) (UniProt P21359). In words: SAXS + SANS; full-length neurofibromin in solution, SAXS at 0.5 and 1.0 mg/ml, SANS at 1 mg/ml, 20 °C; molar mass from scattering.
Test [2] shares this target. In words: AUC; sedimentation velocity and equilibrium of full-length neurofibromin, 1.2 μM to 25 nM, 20 °C, 20 mM HEPES pH 7.4, 300 mM NaCl, 1 mM TCEP; dimer to monomers.
Test [3] shares this target. In words: SEC-MALS; single purified proteins; Superose-6 Increase or Superdex S-200 10/300 GL, Wyatt Heleos and Optilab T-Rex; BSA as standard. For orientation: In gel filtration, larger molecules generally elute earlier.

Usually stoichiometry N stands for a count of units in the complex or per binding partner. The Kd is the equilibrium constant for the complex coming apart. A high value points to weaker binding. For “full-length human neurofibromin (His6-tev-NF1, 2–2818), P21359-2 2-2818”, the stoichiometry N in test [1] and in test [3] was 2 in each case. Also, the Kd in test [2] was under 1 nM.
